23 molecules from patent US20060188503A1 (Genentech, published 2006) can be followed below.

One may read the IC50 as the concentration that inhibits the measured activity by half.

Assay [1] addresses T1, Flt-IgG (a chimeric Flt-human Fc molecule) (human, UniProt P17948 27-758, limits assumed).
T1 construct: not shown: human IgG Fc
Put plainly: competition ELISA: displacement of biotinylated native VEGF from Flt-IgG. The procedure:
The wells were filled with 100 μl of a solution containing Flt-IgG (a chimeric Flt-human Fc molecule) at 50 ng/ml in assay buffer (0.5% BSA, 0.05% Tween 20 in PBS). The wells were incubated at room temperature for 1 hour and then washed three times in wash buffer (0.05% Tween 20 in PBS).
Aliquots of the mixture (100 μl) were added to the precoated microtiter wells and the plate was incubated for 2 hours at room temperature. […] The wells were then incubated with […] (0.2 g/liter, Kirkegaard & Perry Laboratories, Gaithersburg, Md.) for about 10 minutes at room temperature. Absorbance was read at 450 nm on a Vmax plate reader (Molecular Devices, Menlo Park, Calif.).
(§1) Titration curves were fit with a four-parameter nonlinear regression curve-fitting program (KaleidaGraph, Synergy Software, Reading, Pa.).

Assay [2] has as its target FLT-1 Receptor (RIA of Example 11) (UniProt P17948 27-758, limits assumed). Put plainly: RIA, essentially as in Muller et al. 1997.
Assay [3] concerns the target KDR Receptor (RIA of Example 11) (UniProt P35968 20-764, limits assumed). Put plainly: RIA, essentially as in Muller et al. 1997.
The target in assay [4] is KDR receptor on human umbilical vein endothelial cells (HUVEC) (human, UniProt P35968 20-1356). Put plainly: cell-based or functional assay.
Sequence of KDR receptor on human umbilical vein endothelial cells (HUVEC) (P35968 20-1356): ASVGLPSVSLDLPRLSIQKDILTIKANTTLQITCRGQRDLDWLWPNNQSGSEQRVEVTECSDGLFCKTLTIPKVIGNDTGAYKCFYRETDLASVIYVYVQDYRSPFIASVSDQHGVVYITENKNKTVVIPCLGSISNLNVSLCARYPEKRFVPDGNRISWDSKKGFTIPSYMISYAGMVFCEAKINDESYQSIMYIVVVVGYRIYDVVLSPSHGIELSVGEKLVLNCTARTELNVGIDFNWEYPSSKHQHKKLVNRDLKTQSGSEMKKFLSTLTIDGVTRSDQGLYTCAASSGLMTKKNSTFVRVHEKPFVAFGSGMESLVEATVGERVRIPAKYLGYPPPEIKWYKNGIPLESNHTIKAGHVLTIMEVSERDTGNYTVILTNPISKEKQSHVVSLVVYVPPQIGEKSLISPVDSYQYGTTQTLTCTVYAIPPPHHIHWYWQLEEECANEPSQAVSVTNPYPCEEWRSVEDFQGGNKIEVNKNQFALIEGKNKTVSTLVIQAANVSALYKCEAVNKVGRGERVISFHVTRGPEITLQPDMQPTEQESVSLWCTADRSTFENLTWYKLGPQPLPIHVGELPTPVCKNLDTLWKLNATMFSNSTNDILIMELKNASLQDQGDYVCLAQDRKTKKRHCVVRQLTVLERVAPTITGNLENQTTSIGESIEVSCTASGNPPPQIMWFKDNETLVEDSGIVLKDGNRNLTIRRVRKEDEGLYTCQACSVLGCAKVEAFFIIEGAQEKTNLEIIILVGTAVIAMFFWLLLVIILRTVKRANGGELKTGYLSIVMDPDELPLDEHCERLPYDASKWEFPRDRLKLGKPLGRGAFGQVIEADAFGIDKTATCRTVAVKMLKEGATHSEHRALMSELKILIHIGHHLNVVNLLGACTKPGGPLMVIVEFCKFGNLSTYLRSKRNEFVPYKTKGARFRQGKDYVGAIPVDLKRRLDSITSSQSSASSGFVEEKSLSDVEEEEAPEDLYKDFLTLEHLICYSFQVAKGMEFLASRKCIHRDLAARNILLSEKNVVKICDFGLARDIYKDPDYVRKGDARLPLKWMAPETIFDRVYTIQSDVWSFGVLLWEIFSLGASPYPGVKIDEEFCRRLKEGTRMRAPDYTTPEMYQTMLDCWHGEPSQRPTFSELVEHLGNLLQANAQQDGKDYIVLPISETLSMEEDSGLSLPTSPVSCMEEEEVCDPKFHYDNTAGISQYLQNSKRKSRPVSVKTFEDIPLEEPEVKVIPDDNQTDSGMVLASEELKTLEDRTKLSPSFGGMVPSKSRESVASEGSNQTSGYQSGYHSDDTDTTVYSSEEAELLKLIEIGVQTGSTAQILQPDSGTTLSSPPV
Assay [5] addresses KDR receptor with a gD tag at the N-terminus, on CHO cells (UniProt P35968 20-1356). Kind of assay: cell-based or functional assay.
For assay [6], the target named is T2, KDR (1-3) (UniProt P35968 20-327, limits assumed).
T2 construct: domain: KDR (1-3); Soluble KDR (1-3) at 1 ug/ml, captured on anti-KDR antibody MAKD5; also called KDR (1-3) monomer
T2 sequence (P35968 20-327 limits assumed): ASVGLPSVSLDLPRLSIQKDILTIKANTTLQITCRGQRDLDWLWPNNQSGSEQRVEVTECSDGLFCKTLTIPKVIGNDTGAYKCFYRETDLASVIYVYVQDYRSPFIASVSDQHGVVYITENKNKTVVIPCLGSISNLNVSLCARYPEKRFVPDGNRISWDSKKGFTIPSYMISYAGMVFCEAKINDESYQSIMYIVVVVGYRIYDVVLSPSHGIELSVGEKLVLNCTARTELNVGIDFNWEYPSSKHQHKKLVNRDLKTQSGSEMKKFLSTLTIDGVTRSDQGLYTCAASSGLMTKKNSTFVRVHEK
Kind of assay: competition ELISA: displacement of biotinylated native VEGF (8-109) from KDR (1-3). The procedure: (§2) Aliquots of this mixture (100 μl) were added to the precoated microtiter wells and the plate was incubated for 1 hour at room temperature.
(§3) The wells were then incubated with 3,3′,5,5′-tetramethyl benzidine (0.2 gram/liter; Kirkegaard & Perry Laboratories, Gaithersburg, Md.) for about 10 minutes at room temperature. Absorbance was read at 450 nm on a Vmax plate reader (Molecular Devices, Menlo Park, Calif.).
as §1
Background: ELISA stands for enzyme-linked immunosorbent assay.

Assay [7] has as its target T2, KDR (1-3). Kind of assay: competition ELISA: displacement of biotinylated native VEGF (8-109) from KDR (1-3); concentration at midpoint absorbance. On the procedure: as §2, §3, §1
Assay [8] addresses T2, KDR (1-3). Kind of assay: competition ELISA (Example 7): serially diluted unlabelled native VEGF (8-109) incubated with biotinylated native VEGF (8-109) (84 nM) and KDR (1-3) (1 ug/ml), complex captured on anti-KDR antibody MAKD5, detected with peroxidase-streptavidin, OD 450. On the procedure: as §2, §3, §1

T1 sequence (P17948 27-758 limits assumed, change not shown): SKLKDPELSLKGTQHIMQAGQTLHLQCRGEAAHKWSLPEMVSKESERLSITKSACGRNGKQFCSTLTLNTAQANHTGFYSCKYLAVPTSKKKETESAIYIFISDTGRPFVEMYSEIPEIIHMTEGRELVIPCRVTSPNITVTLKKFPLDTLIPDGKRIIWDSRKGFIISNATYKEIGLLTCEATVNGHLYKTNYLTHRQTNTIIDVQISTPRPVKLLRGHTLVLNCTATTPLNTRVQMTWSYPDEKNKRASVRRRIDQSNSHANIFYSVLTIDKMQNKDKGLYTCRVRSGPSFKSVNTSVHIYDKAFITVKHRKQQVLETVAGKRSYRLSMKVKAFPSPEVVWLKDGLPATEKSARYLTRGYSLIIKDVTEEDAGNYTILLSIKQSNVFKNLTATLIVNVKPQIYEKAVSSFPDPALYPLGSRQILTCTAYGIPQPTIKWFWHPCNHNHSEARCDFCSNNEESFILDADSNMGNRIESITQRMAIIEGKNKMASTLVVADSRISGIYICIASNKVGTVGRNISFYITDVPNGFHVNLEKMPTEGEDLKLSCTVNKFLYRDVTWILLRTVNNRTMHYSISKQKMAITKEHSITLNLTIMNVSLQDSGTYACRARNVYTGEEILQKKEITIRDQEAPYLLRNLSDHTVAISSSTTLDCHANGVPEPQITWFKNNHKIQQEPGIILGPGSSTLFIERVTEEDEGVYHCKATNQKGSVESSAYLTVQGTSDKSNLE
Sequence of FLT-1 Receptor (RIA of Example 11) (P17948 27-758 limits assumed): as the sequence (P17948 27-758 limits assumed, change not shown) above
Sequence of KDR Receptor (RIA of Example 11) (P35968 20-764 limits assumed): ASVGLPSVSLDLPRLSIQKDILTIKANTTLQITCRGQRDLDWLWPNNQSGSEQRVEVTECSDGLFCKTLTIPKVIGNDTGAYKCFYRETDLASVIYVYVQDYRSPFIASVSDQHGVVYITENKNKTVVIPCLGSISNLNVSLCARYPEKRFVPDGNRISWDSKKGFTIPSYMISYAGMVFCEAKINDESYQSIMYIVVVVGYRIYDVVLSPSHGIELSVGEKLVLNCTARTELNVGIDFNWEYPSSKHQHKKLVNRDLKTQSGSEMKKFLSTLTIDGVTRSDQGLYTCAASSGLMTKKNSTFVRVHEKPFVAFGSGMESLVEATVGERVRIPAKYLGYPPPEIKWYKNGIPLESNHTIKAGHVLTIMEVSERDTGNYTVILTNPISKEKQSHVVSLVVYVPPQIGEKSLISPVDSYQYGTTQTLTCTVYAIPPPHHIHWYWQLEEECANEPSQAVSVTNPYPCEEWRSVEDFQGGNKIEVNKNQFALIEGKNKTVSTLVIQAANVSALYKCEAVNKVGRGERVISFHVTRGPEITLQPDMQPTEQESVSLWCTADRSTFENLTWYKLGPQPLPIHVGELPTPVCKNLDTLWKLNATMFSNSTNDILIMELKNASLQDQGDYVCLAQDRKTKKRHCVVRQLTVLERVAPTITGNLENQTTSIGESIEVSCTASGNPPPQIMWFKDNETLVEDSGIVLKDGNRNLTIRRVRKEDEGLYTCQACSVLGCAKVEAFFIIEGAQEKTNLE

B1: LK-VRB-1s* (ligand)
chain: APMAEGGGQNHHEVVKFEDVLRRSSCHPIETLVDIFQEYPDEIEYIFKPSCVPLMRCGGCCNDEGLECVPTEESNITMQIMRIKPHQGQHIGEMSFLQHNKCECRPKKD
B1: the “relative binding affinity (ratio to native VEGF (8-109))” value in assay [1] amounted to 6000 fold; in assay [6] it was 1 fold. Moreover, the “relative binding affinity (ratio to native VEGF 165)” value was 14000 fold in assay [2] and 20 fold in assay [3]. In addition, the “Endothelial Cell Proliferation Activity (HUVEC), ratio to native VEGF (8-109)” value in assay [4] was determined as 0.2 fold. Besides, the “Phosphorylation-Inducing Activity (KIRA), ratio to native VEGF (8-109)” value in assay [5] turned out to be 0.5 fold.

B2: LK-VRB-19s (ligand)
chain: APMAEGGGQNHHEVVKFEDVYRRSSCHPIETLVDIFQEYPDEIEYIFKPSCVPLMRCGGCCNSEMRECVPTEESNITMQIMRIKPHQGQHIGEMSFLQHNKCECRPKKD
Turning to B2, the IC50 in assay [7] worked out at 7 nM. The “relative binding affinity (ratio to native VEGF (8-109))” value in assay [6] came out at 7 fold.

B3: LK-VRB-23s (ligand)
chain: APMAEGGGQNHHEVVKFEDVLRRSSCHPIETLVDIFQEYPDEIEYIFKPSCVPLMRCGGCCNDEGRECVPTEESNITMQIMRIKPHQGQHIGEMSFLQHNKCECRPKKD
Take B3: the “relative binding affinity (ratio to native VEGF (8-109))” value in assay [6] is 11 fold.

B4: LK-VRB-15s (ligand)
chain: APMAEGGGQNHHEVVKFMDVLQRSSCHPIETLVDIFQEYPDEIEYIFKPSCVPLMRCGGCCNSEMRECVPTEESNITMQIMRIKPHQGQHIGEMSFLQHNKCECRPKKD
Consider B4, for which the “relative binding affinity (ratio to native VEGF (8-109))” value in assay [6] came to 2 fold.

B5: LK-VRB-8s* (ligand)
chain: APMAEGGGQNHHEVVKFMDVLQRSYCHPIETLVDIFQEYPDEIEYIFKPSCVPLMRCGGCCNSEMRECVPTEESNITMQIMRIKPHQGQHIGEMSFLQHNKCECRPKKD
notes: 'Y2IL' read as Y21L (codon CTC)
For the molecule B5, the “Endothelial Cell Proliferation Activity (HUVEC), ratio to native VEGF (8-109)” value in assay [4] came out at 1 fold. Also, the “relative binding affinity (ratio to native VEGF (8-109))” value in assay [6] came to 0.5 fold.

B6: LK-VRB-12s (ligand)
chain: APMAEGGGQNHHEVVKFEDVYRRSYCHPIETLVDIFQEYPDEIEYIFKPSCVPLMRCGGCCNSEMRECVPTEESNITMQIMRIKPHQGQHIGEMSFLQHNKCECRPKKD
B6: in assay [6], the “relative binding affinity (ratio to native VEGF (8-109))” value is 0.4 fold.

B7: LK-VRB-24s (ligand)
chain: APMAEGGGQNHHEVVKFEDVLRRSSCHPIETLVDIFQEYPDEIEYIFKPSCVPLMRCGGCCNSEMLECVPTEESNITMQIMRIKPHQGQHIGEMSFLQHNKCECRPKKD
Consider B7, for which, in assay [6], the “relative binding affinity (ratio to native VEGF (8-109))” value worked out at 10 fold.

B8: LK-VRB-22s (ligand)
chain: APMAEGGGQNHHEVVKFEDVLRRSSCHPIETLVDIFQEYPDEIEYIFKPSCVPLMRCGGCCNDEMLECVPTEESNITMQIMRIKPHQGQHIGEMSFLQHNKCECRPKKD
As to B8, in assay [6], the “relative binding affinity (ratio to native VEGF (8-109))” value was 4 fold.

B9: LK-VRB-4s (ligand)
chain: APMAEGGGQNHHEVVKIEDVFERSICHPIETLVDIFQEYPDEIEYIFKPSCVPLMRCGGCCNDEGLECVPTEESNITMQIMRIKPHQGQHIGEMSFLQHNKCECRPKKD
notes: the codon printed for Y25I is CAC (His)
Regarding B9, the “relative binding affinity (ratio to native VEGF (8-109))” value stood at 200 fold in assay [1] and 1 fold in assay [6]. For the same molecule, the “Phosphorylation-Inducing Activity (KIRA), ratio to native VEGF (8-109)” value in assay [5] was 0.5 fold.

B10: LK-VRB-13s (ligand)
chain: APMAEGGGQNHHEVVKFEDVYQRSSCHPIETLVDIFQEYPDEIEYIFKPSCVPLMRCGGCCNSEMRECVPTEESNITMQIMRIKPHQGQHIGEMSFLQHNKCECRPKKD
Turning to B10, in assay [6], the “relative binding affinity (ratio to native VEGF (8-109))” value was found to be 14 fold.

B11: LK-VRB-26s (ligand)
chain: APMAEGGGQNHHEVVKFEDVLRRSSCHPIETLVDIFQEYPDEIEYIFKPSCVPLMRCGGCCNDEMRECVPTEESNITMQIMRIKPHQGQHIGEMSFLQHNKCECRPKKD
Take B11: in assay [6], the “relative binding affinity (ratio to native VEGF (8-109))” value is 23 fold.

B12: LK-VRB-17s (ligand)
chain: APMAEGGGQNHHEVVKFEDVLRRSYCHPIETLVDIFQEYPDEIEYIFKPSCVPLMRCGGCCNSEMRECVPTEESNITMQIMRIKPHQGQHIGEMSFLQHNKCECRPKKD
On to B12, for which, in assay [6], the “relative binding affinity (ratio to native VEGF (8-109))” value was determined as 3 fold.

B13: LK-VRB-21s (ligand)
chain: APMAEGGGQNHHEVVKFEDVLRRSSCHPIETLVDIFQEYPDEIEYIFKPSCVPLMRCGGCCNSEGLECVPTEESNITMQIMRIKPHQGQHIGEMSFLQHNKCECRPKKD
Turning to B13, in assay [6], the “relative binding affinity (ratio to native VEGF (8-109))” value is 3 fold.

B14: LK-VRB-3s (ligand)
chain: APMAEGGGQNHHEVVKIEDVFKRSSCHPIETLVDIFQEYPDEIEYIFKPSCVPLMRCGGCCNDEGLECVPTEESNITMQIMRIKPHQGQHIGEMSFLQHNKCECRPKKD
As for B14, the entries for the “relative binding affinity (ratio to native VEGF (8-109))” value in assay [1] and in assay [6] were 400 fold and 1 fold, respectively. Further, the “Phosphorylation-Inducing Activity (KIRA), ratio to native VEGF (8-109)” value in assay [5] was found to be 1 fold.

B15: LK-VRB-14s (ligand)
chain: APMAEGGGQNHHEVVKFMDVLRRSYCHPIETLVDIFQEYPDEIEYIFKPSCVPLMRCGGCCNSEMRECVPTEESNITMQIMRIKPHQGQHIGEMSFLQHNKCECRPKKD
In the case of B15, in assay [6], the “relative binding affinity (ratio to native VEGF (8-109))” value was 0.5 fold.

B16: LK-VRB-7s* (ligand)
chain: APMAEGGGQNHHEVVKFEDVYQRSYCHPIETLVDIFQEYPDEIEYIFKPSCVPLMRCGGCCNSEMRECVPTEESNITMQIMRIKPHQGQHIGEMSFLQHNKCECRPKKD
For the molecule B16, in assay [4], the “Endothelial Cell Proliferation Activity (HUVEC), ratio to native VEGF (8-109)” value came to 1 fold. Also, in assay [6], the “relative binding affinity (ratio to native VEGF (8-109))” value came to 1 fold.

B17: LK-VRB-11s (ligand)
chain: APMAEGGGQNHHEVVKFEDVLQRSYCHPIETLVDIFQEYPDEIEYIFKPSCVPLMRCGGCCNSEMRECVPTEESNITMQIMRIKPHQGQHIGEMSFLQHNKCECRPKKD
On to B17, for which, in assay [6], the “relative binding affinity (ratio to native VEGF (8-109))” value worked out at 2 fold.

B18: LK-VRB-25s (ligand)
chain: APMAEGGGQNHHEVVKFEDVLRRSSCHPIETLVDIFQEYPDEIEYIFKPSCVPLMRCGGCCNSEGRECVPTEESNITMQIMRIKPHQGQHIGEMSFLQHNKCECRPKKD
Turning to B18, the “relative binding affinity (ratio to native VEGF (8-109))” value in assay [6] came to 4 fold.

B19: LK-VRB-16s (ligand)
chain: APMAEGGGQNHHEVVKFMDVYRRSSCHPIETLVDIFQEYPDEIEYIFKPSCVPLMRCGGCCNSEMRECVPTEESNITMQIMRIKPHQGQHIGEMSFLQHNKCECRPKKD
As for B19, in assay [6], the “relative binding affinity (ratio to native VEGF (8-109))” value amounted to 0.6 fold.

B20: LK-VRB-9s (ligand)
chain: APMAEGGGQNHHEVVKFMDVYRRSYCHPIETLVDIFQEYPDEIEYIFKPSCVPLMRCGGCCNSEMRECVPTEESNITMQIMRIKPHQGQHIGEMSFLQHNKCECRPKKD
Consider B20, for which the “relative binding affinity (ratio to native VEGF (8-109))” value came out at 300 fold in assay [1] and 0.5 fold in assay [6].

B21: LK-VRB-20s (ligand)
chain: APMAEGGGQNHHEVVKFMDVLRRSSCHPIETLVDIFQEYPDEIEYIFKPSCVPLMRCGGCCNSEMRECVPTEESNITMQIMRIKPHQGQHIGEMSFLQHNKCECRPKKD
For B21, the “relative binding affinity (ratio to native VEGF (8-109))” value in assay [6] amounted to 2 fold.

B22: LK-VRB-10s (ligand)
chain: APMAEGGGQNHHEVVKFMDVYQRSSCHPIETLVDIFQEYPDEIEYIFKPSCVPLMRCGGCCNSEMRECVPTEESNITMQIMRIKPHQGQHIGEMSFLQHNKCECRPKKD
With B22, in assay [6], the “relative binding affinity (ratio to native VEGF (8-109))” value was 0.5 fold.

B23: Native VEGF (8-109) (ligand)
chain: GQNHHEVVKFMDVYQRSYCHPIETLVDIFQEYPDEIEYIFKPSCVPLMRCGGCCNDEGLECVPTEESNITMQIMRIKPHQGQHIGEMSFLQHNKCECRPKKD
As to B23, the “IC50 (read off the curve)” value in assay [8] was around 2 nM.
